Measured values as given in patent publication US20130336893A1 (Sanofi, published 2013).
*1 amine or outer side, *2 acyl side, *3 side chain or, on linkers, in order; H or OH if unused. Where no end group is shown, it is not given here. [ ]: non-standard residue; d: D form. Cysteamide = C(CS[*:3])N[*:1]

B1: SEQ ID NO: (35) (peptide)
peptide: H[dS]QGTFTSDLSKQMDSRRAQLFIEWLKNGGPSSGAPPPS-NH2
modifications: N-terminus assumed
SMILES: CC[C@H](C)[C@H](NC(=O)[C@H](Cc1ccccc1)NC(=O)[C@H](CC(C)C)NC(=O)[C@H](CCC(N)=O)NC(=O)[C@H](C)NC(=O)[C@H](CCCNC(=N)N)NC(=O)[C@H](CCCNC(=N)N)NC(=O)[C@H](CO)NC(=O)[C@H](CC(=O)O)NC(=O)[C@H](CCSC)NC(=O)[C@H](CCC(N)=O)NC(=O)[C@H](CCCCN)NC(=O)[C@H](CO)NC(=O)[C@H](CC(C)C)NC(=O)[C@H](CC(=O)O)NC(=O)[C@H](CO)NC(=O)[C@@H](NC(=O)[C@H](Cc1ccccc1)NC(=O)[C@@H](NC(=O)CNC(=O)[C@H](CCC(N)=O)NC(=O)[C@@H](CO)NC(=O)[C@@H](N)Cc1c[nH]cn1)[C@@H](C)O)[C@@H](C)O)C(=O)N[C@@H](CCC(=O)O)C(=O)N[C@@H](Cc1c[nH]c2ccccc12)C(=O)N[C@@H](CC(C)C)C(=O)N[C@@H](CCCCN)C(=O)N[C@@H](CC(N)=O)C(=O)NCC(=O)NCC(=O)N1CCC[C@H]1C(=O)N[C@@H](CO)C(=O)N[C@@H](CO)C(=O)NCC(=O)N[C@@H](C)C(=O)N1CCC[C@H]1C(=O)N1CCC[C@H]1C(=O)N1CCC[C@H]1C(=O)N[C@@H](CO)C(N)=O
B2: SEQ ID NO: (37) (peptide)
peptide: H[dS]QGTFTSDLSKQMDSRRAQEFIEWLKNGGPSSGAPPPS-NH2
modifications: N-terminus assumed
SMILES: CC[C@H](C)[C@H](NC(=O)[C@H](Cc1ccccc1)NC(=O)[C@H](CCC(=O)O)NC(=O)[C@H](CCC(N)=O)NC(=O)[C@H](C)NC(=O)[C@H](CCCNC(=N)N)NC(=O)[C@H](CCCNC(=N)N)NC(=O)[C@H](CO)NC(=O)[C@H](CC(=O)O)NC(=O)[C@H](CCSC)NC(=O)[C@H](CCC(N)=O)NC(=O)[C@H](CCCCN)NC(=O)[C@H](CO)NC(=O)[C@H](CC(C)C)NC(=O)[C@H](CC(=O)O)NC(=O)[C@H](CO)NC(=O)[C@@H](NC(=O)[C@H](Cc1ccccc1)NC(=O)[C@@H](NC(=O)CNC(=O)[C@H](CCC(N)=O)NC(=O)[C@@H](CO)NC(=O)[C@@H](N)Cc1c[nH]cn1)[C@@H](C)O)[C@@H](C)O)C(=O)N[C@@H](CCC(=O)O)C(=O)N[C@@H](Cc1c[nH]c2ccccc12)C(=O)N[C@@H](CC(C)C)C(=O)N[C@@H](CCCCN)C(=O)N[C@@H](CC(N)=O)C(=O)NCC(=O)NCC(=O)N1CCC[C@H]1C(=O)N[C@@H](CO)C(=O)N[C@@H](CO)C(=O)NCC(=O)N[C@@H](C)C(=O)N1CCC[C@H]1C(=O)N1CCC[C@H]1C(=O)N1CCC[C@H]1C(=O)N[C@@H](CO)C(N)=O
B3: SEQ ID NO: (33) (peptide)
peptide: H[dS]QGTFTSDLSKQMDSRRAQDFIEWLKKGGPSSGEPPPS-NH2
modifications: N-terminus assumed
SMILES: CC[C@H](C)[C@H](NC(=O)[C@H](Cc1ccccc1)NC(=O)[C@H](CC(=O)O)NC(=O)[C@H](CCC(N)=O)NC(=O)[C@H](C)NC(=O)[C@H](CCCNC(=N)N)NC(=O)[C@H](CCCNC(=N)N)NC(=O)[C@H](CO)NC(=O)[C@H](CC(=O)O)NC(=O)[C@H](CCSC)NC(=O)[C@H](CCC(N)=O)NC(=O)[C@H](CCCCN)NC(=O)[C@H](CO)NC(=O)[C@H](CC(C)C)NC(=O)[C@H](CC(=O)O)NC(=O)[C@H](CO)NC(=O)[C@@H](NC(=O)[C@H](Cc1ccccc1)NC(=O)[C@@H](NC(=O)CNC(=O)[C@H](CCC(N)=O)NC(=O)[C@@H](CO)NC(=O)[C@@H](N)Cc1c[nH]cn1)[C@@H](C)O)[C@@H](C)O)C(=O)N[C@@H](CCC(=O)O)C(=O)N[C@@H](Cc1c[nH]c2ccccc12)C(=O)N[C@@H](CC(C)C)C(=O)N[C@@H](CCCCN)C(=O)N[C@@H](CCCCN)C(=O)NCC(=O)NCC(=O)N1CCC[C@H]1C(=O)N[C@@H](CO)C(=O)N[C@@H](CO)C(=O)NCC(=O)N[C@@H](CCC(=O)O)C(=O)N1CCC[C@H]1C(=O)N1CCC[C@H]1C(=O)N1CCC[C@H]1C(=O)N[C@@H](CO)C(N)=O
B4: SEQ ID NO: (31) (peptide)
peptide: H[dS]QGTFTSDLSKQMDSRRARDFIEWLKNGGPSSGAPPPS-NH2
modifications: N-terminus assumed
SMILES: CC[C@H](C)[C@H](NC(=O)[C@H](Cc1ccccc1)NC(=O)[C@H](CC(=O)O)NC(=O)[C@H](CCCNC(=N)N)NC(=O)[C@H](C)NC(=O)[C@H](CCCNC(=N)N)NC(=O)[C@H](CCCNC(=N)N)NC(=O)[C@H](CO)NC(=O)[C@H](CC(=O)O)NC(=O)[C@H](CCSC)NC(=O)[C@H](CCC(N)=O)NC(=O)[C@H](CCCCN)NC(=O)[C@H](CO)NC(=O)[C@H](CC(C)C)NC(=O)[C@H](CC(=O)O)NC(=O)[C@H](CO)NC(=O)[C@@H](NC(=O)[C@H](Cc1ccccc1)NC(=O)[C@@H](NC(=O)CNC(=O)[C@H](CCC(N)=O)NC(=O)[C@@H](CO)NC(=O)[C@@H](N)Cc1c[nH]cn1)[C@@H](C)O)[C@@H](C)O)C(=O)N[C@@H](CCC(=O)O)C(=O)N[C@@H](Cc1c[nH]c2ccccc12)C(=O)N[C@@H](CC(C)C)C(=O)N[C@@H](CCCCN)C(=O)N[C@@H](CC(N)=O)C(=O)NCC(=O)NCC(=O)N1CCC[C@H]1C(=O)N[C@@H](CO)C(=O)N[C@@H](CO)C(=O)NCC(=O)N[C@@H](C)C(=O)N1CCC[C@H]1C(=O)N1CCC[C@H]1C(=O)N1CCC[C@H]1C(=O)N[C@@H](CO)C(N)=O

Columns and labels:
human GLP-1 receptor = human GLP-1 receptor (human, UniProt P43220 24-463); experiment: cell-based or functional assay
human glucagon receptor = human glucagon receptor (human, UniProt P47871 26-477); experiment: cell-based or functional assay
Chain of human glucagon receptor (P47871 26-477): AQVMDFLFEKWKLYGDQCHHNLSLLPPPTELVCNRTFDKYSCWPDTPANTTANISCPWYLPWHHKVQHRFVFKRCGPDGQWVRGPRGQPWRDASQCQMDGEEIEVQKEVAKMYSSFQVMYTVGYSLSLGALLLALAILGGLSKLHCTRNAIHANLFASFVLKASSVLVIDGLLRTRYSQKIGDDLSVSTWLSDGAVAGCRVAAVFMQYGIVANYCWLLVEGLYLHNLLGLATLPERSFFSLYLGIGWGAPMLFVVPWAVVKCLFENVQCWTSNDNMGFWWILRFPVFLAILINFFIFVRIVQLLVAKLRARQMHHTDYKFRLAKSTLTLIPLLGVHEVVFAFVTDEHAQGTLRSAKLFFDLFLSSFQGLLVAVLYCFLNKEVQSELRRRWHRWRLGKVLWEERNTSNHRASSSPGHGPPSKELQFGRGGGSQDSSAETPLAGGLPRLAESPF

Binder | EC50 hGLP-1R (cAMP formation) (human GLP-1 receptor) | EC50 hGlucagonR (cAMP formation) (human glucagon receptor)
B1 | 0.0894 nM | 0.043 nM
B2 | 0.0759 nM | 0.0582 nM
HGQGTFTSDLSKQMDSRRAQDFIEWLKNGGPSSGAPPPS-NH2 [SEQ ID NO: (11)] | 0.0254 nM | 2.32 nM
HSQGTFTSDLSKQMDSRRAQDFIEWLKNGGPSSGAPPPS-{NH‑(CH2)5‑OH} [SEQ ID NO: (50)] | 0.014 nM | 0.0225 nM
B3 | 0.138 nM | 0.347 nM
HAQGTFTSDLSKQMDSRRAQDFIEWLKNGGPSSGAPPPS-NH2 [SEQ ID NO: (39)] | 0.0046 nM | 0.683 nM
HSQGTFTSDLSKQMDSRRAQDFIEWLKNGGPSSGAPPPS-{NH‑CH2‑CH2‑S‑tBu} [SEQ ID NO: (36)] | 0.0189 nM | 0.0458 nM
H[dA]QGTFTSDLSKQMDSRRAQDFIEWLKNGGPSSGAPPPS-NH2 [SEQ ID NO: (40)] | 0.0081 nM | 1.18 nM
B4 | 0.0109 nM | 0.132 nM
HSQGTFTSDLSKQMDSRRAQDFIEWLKNGGPSSGAPPPS-Cysteamide [SEQ ID NO: (8)] | 0.0203 nM | 0.0351 nM
